Measurements as given in article PMC3365051, “Sequence-Specific Binding of Recombinant Zbed4 to DNA: Insights into Zbed4 Participation in Gene Transcription and Its Association with Other Proteins”.

T1: Zbed4 (mouse (cDNA from mouse retinal RNA), UniProt Q80WQ9 1-1168)
T1 sequence: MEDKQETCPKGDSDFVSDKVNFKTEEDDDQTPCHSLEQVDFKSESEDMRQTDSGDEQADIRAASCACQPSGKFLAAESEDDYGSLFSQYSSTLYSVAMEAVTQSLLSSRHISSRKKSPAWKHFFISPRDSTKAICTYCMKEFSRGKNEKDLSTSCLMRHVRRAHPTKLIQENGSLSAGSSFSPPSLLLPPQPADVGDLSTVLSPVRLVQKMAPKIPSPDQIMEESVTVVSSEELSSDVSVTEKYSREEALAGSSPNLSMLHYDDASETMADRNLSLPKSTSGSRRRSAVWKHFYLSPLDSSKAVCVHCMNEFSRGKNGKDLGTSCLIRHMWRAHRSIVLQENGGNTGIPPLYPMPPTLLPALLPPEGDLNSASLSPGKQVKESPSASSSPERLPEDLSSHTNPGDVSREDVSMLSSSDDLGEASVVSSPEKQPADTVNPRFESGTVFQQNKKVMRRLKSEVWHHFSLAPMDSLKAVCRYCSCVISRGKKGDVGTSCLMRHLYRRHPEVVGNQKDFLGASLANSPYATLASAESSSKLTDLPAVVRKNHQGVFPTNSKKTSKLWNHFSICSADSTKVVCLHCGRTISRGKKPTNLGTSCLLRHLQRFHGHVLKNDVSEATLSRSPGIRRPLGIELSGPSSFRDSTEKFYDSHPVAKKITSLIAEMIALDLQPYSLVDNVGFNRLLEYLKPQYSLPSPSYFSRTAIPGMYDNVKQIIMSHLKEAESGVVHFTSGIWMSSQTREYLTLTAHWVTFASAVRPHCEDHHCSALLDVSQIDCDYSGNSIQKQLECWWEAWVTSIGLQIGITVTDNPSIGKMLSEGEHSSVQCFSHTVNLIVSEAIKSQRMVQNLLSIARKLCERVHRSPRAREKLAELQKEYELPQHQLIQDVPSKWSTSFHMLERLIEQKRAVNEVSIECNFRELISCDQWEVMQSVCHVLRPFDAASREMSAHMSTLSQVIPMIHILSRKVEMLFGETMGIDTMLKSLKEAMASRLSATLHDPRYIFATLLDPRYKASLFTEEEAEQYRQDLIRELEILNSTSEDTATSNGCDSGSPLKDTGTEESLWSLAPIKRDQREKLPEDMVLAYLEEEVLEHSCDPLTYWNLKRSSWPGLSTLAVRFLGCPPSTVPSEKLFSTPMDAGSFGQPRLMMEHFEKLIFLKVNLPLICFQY

B1: poly-T (called 20-mer, 19 T printed) (ssDNA)
DNA: TTTTTTTTTTTTTTTTTTT
B2: GC-box2 (ssDNA)
DNA: AAAAATGGGCGGAATAAAAA
B3: poly-ribo-G (ssRNA)
RNA: UUUUUGGGGGGGGGGUUUUU
B4: poly-ribo-C (ssRNA)
RNA: UUUUUCCCCCCCCCCUUUUU
B5: GC-box1 (ssDNA)
DNA: AAAAAGGGGCGGGGCAAAAA
B6: poly-A (A20) (ssDNA)
DNA: AAAAAAAAAAAAAAAAAAAA

Molecular target: T1, Zbed4
Assay: EMSA; 20 ug Zbed4, 0.5 nM oligo in 20 mM HEPES pH 7.5, 150 mM NaCl, 5 mM beta-mercaptoethanol, 5% glycerol, 0.5 mM ascorbic acid, 0.5 mM propyl gallate, 10 uM ZnSO4
Conditions: protein: recombinant; tags: C-terminal His8

| Binder | binding result |
| --- | --- |
| B1 | no binding |
| B2 | no binding |
| B3 | binds |
| B4 | no binding |
| B5 | binds |
| B6 | no binding |
